Patent US20200377604

Tests used:
[1] = gel filtration of the Fc, mAU at 280 nm against time; low, broad peak at 19.477 min
[2] = gel filtration of the Fc, mAU at 280 nm against time; low, broad peak at 19.455 min

Row | Protein | Area of the small peak ahead of the monomer peak (dimer position; not labelled Dimer on the sheet) [1] | Area of the small peak ahead of the monomer peak (dimer position; not labelled Dimer on the sheet) [2]
1 | knob Fc F241S/F243R (protein) DKTHTSPPSPAPELLGGPSVSLRPPKPKDTLMISRTPEVTCVVVDVSHEDPEVKFNWYVDGVEVHNAKTKPREEQYNSTYRVVSVLTVLHQDWLNGKEYKCKVSNKALPAPIEKTISKAKGQPREPQVYTLPPSREEMTKNQVSLWCLVKGFYPSDIAVEWESNGQPENNYKTTPPVLDSDGSFFLYSKLTVDKSRWQQGNVFSCSVMHEALHNHYTQKSLSLSPGK | Area: 1943.99 | –
2 | knob Fc F241R/F243S (protein) DKTHTSPPSPAPELLGGPSVRLSPPKPKDTLMISRTPEVTCVVVDVSHEDPEVKFNWYVDGVEVHNAKTKPREEQYNSTYRVVSVLTVLHQDWLNGKEYKCKVSNKALPAPIEKTISKAKGQPREPQVYTLPPSREEMTKNQVSLWCLVKGFYPSDIAVEWESNGQPENNYKTTPPVLDSDGSFFLYSKLTVDKSRWQQGNVFSCSVMHEALHNHYTQKSLSLSPGK | – | Area: 3287.62
